Assay in all cases: fluorescence polarization
Data set [1] concerns the target T1, MBP-hnRNP A2/B1 (1-251) (UniProt P22626 1-251).
For data set [2], the target named is T1, MBP-hnRNP A2/B1 (1-251). The source holds these as a separate data set.
For data set [3], the target named is T2, SRSF1 RRM1+2 (UniProt Q07955 1-195).
Data set [4] deals with T2, SRSF1 RRM1+2. This is another data set of the same source.
The target of data set [5] is T1, MBP-hnRNP A2/B1 (1-251). The source holds these as a separate data set.

Like-named read-outs stand apart in the source and are kept apart here.

T1 sequence (P22626 1-251): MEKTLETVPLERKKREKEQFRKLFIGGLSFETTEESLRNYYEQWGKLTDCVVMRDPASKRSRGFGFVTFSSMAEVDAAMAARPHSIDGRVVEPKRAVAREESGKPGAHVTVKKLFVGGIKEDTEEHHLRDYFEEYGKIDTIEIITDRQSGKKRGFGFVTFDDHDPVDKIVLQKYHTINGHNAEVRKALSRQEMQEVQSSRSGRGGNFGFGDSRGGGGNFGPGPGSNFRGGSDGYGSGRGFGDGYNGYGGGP
T2 sequence (Q07955 1-195): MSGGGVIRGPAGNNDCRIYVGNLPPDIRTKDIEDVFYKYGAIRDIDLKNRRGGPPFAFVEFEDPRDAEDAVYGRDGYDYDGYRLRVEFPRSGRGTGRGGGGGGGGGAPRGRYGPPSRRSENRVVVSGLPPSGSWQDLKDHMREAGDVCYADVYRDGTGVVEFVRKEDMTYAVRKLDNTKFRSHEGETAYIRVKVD

Take AAGGACUAGCAAGGACUAGCAAGGACUAGC (ssRNA) [FAM-H3 (10 mer 3n)]: in the data set with MBP-hnRNP A2/B1 (1-251) [1], the affinity, expressed as Kd, was 24 ± 8.1 nM.

On to AAGGACUAGCAAGGACUAGC (ssRNA) [FAM-H2 (10 mer 2n)], for which the affinity with MBP-hnRNP A2/B1 (1-251) [2], expressed as Kd, was 135 ± 9 nM.

In turn, AGAAGAACAGAAGAACAGAAGAAC (ssRNA) [FAM-S3 (A3 3n)] yielded a Kd with SRSF1 RRM1+2 [3] of 42.5 ± 33.9 nM.

AGAAGAACAGAAGAAC (ssRNA) [FAM-S2 (A3 2n)]: the Kd in the data set with SRSF1 RRM1+2 [4] was determined as 56.1 ± 17.5 nM.

In the data set with MBP-hnRNP A2/B1 (1-251) [5], AAGGACUAGC (ssRNA) [FAM-H1 (10 mer 1n)] returned a Kd of 51.7 ± 9 nM.

By Kd is commonly meant a measure of binding affinity in units of concentration. Low values mean tighter binding, high ones weaker binding.

The record behind these values is publication PMC10038052.
